Our source for the Kd, IC50 and Ki values is publication PMC4742067 (PLoS ONE, 2016).

By Kd is commonly meant the concentration at which binding is half-saturated. As a reminder, the IC50 is the concentration that gives 50% inhibition. A higher IC50 goes with a need for much substance. Broadly, the Ki is a measure of affinity in units of concentration, obtained from inhibition or displacement. High values mean a looser hold on the target, low ones a stronger hold on the target.

Test [1] concerns the target bradykinin B1 receptor (Homo sapiens) (UniProt P46663). Nature of the test: radioligand binding. The note with it: cited from earlier work.
Test [2] concerns the target T1, human B1R C-terminally tagged with FLAG (hB1R-FLAG) (human, UniProt P46663 1-353).
T1 construct: also called human B1R-FLAG; bradykinin B1 receptor; not shown: FLAG, C-terminal, kept
T1 sequence (looked up): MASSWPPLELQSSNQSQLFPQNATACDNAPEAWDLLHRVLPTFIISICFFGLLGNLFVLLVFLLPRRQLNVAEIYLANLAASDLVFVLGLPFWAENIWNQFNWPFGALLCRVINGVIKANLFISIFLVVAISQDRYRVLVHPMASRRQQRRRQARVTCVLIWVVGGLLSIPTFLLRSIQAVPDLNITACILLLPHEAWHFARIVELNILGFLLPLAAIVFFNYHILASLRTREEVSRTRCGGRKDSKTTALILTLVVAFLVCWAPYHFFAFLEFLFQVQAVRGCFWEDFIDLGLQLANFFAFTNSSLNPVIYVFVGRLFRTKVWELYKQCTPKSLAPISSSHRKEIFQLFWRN
Nature of the test: radioligand binding; competition of dilutions of a producer-cell lysate of known EGFP-S4-P1 concentration (GFP ELISA) with 1 nM [^3H]Lys-des-Arg^9-BK (bought radioligand) on intact HEK 293a cells expressing hB1R-FLAG; Ki by the Cheng-Prusoff correction. The note with it: partners not purified.

The target in test [3] is T1, human B1R C-terminally tagged with FLAG …. As to the kind of experiment: radioligand binding; competition of unlabeled pure peptides with 1 nM [^3H]Lys-des-Arg^9-BK on intact, adherent HEK 293a cells (24-well plates) transiently expressing hB1R-FLAG; one-site competition fit (series of Fig 2 and the Lys-des-Arg^9-BK curve of Fig 7). As to conditions: one partner purified.

In the case of “Lys-des-Arg9-bradykinin (from UniProt P01042)”, the Kd in test [1] is 0.35 nM.

B1: EGFP-S4-P1 (EGFP-(NG)15-Lys-des-Arg^9-BK) (ligand)
chain: NGNGNGNGNGNGNGNGNGNGNGNGNGNGNGKRPPGFSPF
notes: also called EGFP-(Asn-Gly)15-Lys-des-Arg^9-BK
Consider B1, for which, in test [2], the IC50 worked out at 25.5 nM and the affinity corresponds to a Ki of 6.6 nM.

B2: synthetic S3-P2 (peptide)
chain: NGNGNGNGNGKRPPGFSPL
B2 yielded an IC50 in test [3] of 663 nM.

B3: synthetic S3-P1 (peptide)
peptide: NGNGNGNGNGKRPPGFSPF
notes: also called (Asn-Gly)5-Lys-des-Arg^9-BK
B3 showed an IC50 in test [3] of 75.1 nM.
